# Measured values published in patent US20240279281A1, “Peptide Inhibitors of Interleukin-23 Receptor” (Janssen Pharmaceutica NV, priority 2023, published 2024).
# Starred links: 1 amine or outer side, 2 acyl side, 3 side chain; linkers in the order of their positions; H or OH if unused. Positions of bridges follow the written chain, without caps; N, C: chain ends. Non-standard residues stand in square brackets, D forms with d. No end group written: not given here. X3 = 4‑(2-(4-(2-amino-2-carboxyethyl)phenoxy)ethyl)‑4‑methylmorpholin‑4‑ium, C[N+]1(CCOc2ccc(CC(N[*:1])C(=O)[*:2])cc2)CCOCC1; X6 = 2‑amino‑3‑(4-carbamoyl-1H-imidazol-1-yl)propanoic acid, NC(=O)c1cn(CC(N[*:1])C(=O)[*:2])cn1; 2Nal(6-OH) = N[C@@H](Cc1ccc2cc(O)ccc2c1)C(=O)O; Trp(7-Me) = Cc1cccc2c(C[C@H](N)C(=O)O)c[nH]c12; AEF = NCCOc1ccc(C[C@H](N)C(=O)O)cc1; 3Pal = N[C@@H](Cc1cccnc1)C(=O)O; Pen = CC(C)(S)[C@H](N)C(=O)O; lipid = not defined here; Thp = NC1(C(=O)O)CCOCC1; Sar = CNCC(=O)O
# T1: interleukin-23 receptor (IL-23R), Q5VWK5
# T1 chain: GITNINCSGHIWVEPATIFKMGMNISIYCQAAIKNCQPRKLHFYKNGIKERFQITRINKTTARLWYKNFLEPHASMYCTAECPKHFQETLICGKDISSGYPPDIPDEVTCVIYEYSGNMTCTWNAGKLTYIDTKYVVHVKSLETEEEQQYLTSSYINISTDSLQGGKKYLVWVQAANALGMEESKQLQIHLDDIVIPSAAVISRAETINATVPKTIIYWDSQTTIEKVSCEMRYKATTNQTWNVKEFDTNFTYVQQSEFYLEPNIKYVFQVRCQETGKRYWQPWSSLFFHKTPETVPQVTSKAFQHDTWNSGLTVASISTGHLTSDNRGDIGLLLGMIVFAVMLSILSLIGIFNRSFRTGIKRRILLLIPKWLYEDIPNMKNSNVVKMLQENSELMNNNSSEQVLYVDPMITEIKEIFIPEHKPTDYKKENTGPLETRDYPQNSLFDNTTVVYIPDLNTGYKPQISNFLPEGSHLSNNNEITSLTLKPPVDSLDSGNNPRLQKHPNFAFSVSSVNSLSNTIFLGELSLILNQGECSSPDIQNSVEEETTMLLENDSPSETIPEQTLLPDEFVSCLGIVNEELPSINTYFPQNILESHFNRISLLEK
# Target: T1, interleukin-23 receptor (IL-23R), Q5VWK5
# Experiment: cell-based or functional assay
Binder,PBMC pSTAT3 IC50,IL23R Reporter Assay IC50
"[(R)‑3‑carboxy‑2‑(4-(((R)-5-carboxy-5-hydrazineylpentyl)amino)-4-oxobutanamido)‑N,N,N‑trimethylpropan‑1‑aminium][Pen]NT[Trp(7-Me)]K(Ac)[Pen][2‑amino‑3‑(4-(2-aminoethoxy)phenyl)propanoic acid][2‑amino‑3‑(6-hydroxynaphthalen-2-yl)propanoic acid][Thp]EN[3Pal][Sar] (disulfide 2-7 (inferred); ends not checked) [SEQ ID NO: 264]",< 10 pM,–
K[Pen]NT[Trp(7-Me)]K(Ac)[Pen][2‑amino‑3‑(4-(2-aminoethoxy)phenyl)propanoic acid][2‑amino‑3‑(6-hydroxynaphthalen-2-yl)propanoic acid][Thp]EN[3Pal][Sar] (disulfide 2-7 (inferred); not fully specified (residue 1); ends not checked; also: K1: lipidated lysine) [SEQ ID NO: 268],< 1 nM,–
"[Pen]NT[Trp(7-Me)]K[Pen][2‑amino‑3‑(4-(2-aminoethoxy)phenyl)propanoic acid][2‑amino‑3‑(6-hydroxynaphthalen-2-yl)propanoic acid][Thp]K(Ac)N[3Pal][Sar] (not fully specified (bridges); ends and bridges not checked; also: K5: lipidated lysine, lipid not given here) [SEQ ID NO: 81]",–,< 10 nM
R[Pen]NTWK(Ac)[Pen][X3][2Nal(6-OH)][Thp]EN[3Pal][Sar] (not fully specified (bridges); ends and bridges not checked) [SEQ ID NO: 73],–,< 10 nM
"[(R)‑3‑carboxy‑2‑(4-(((R)-5-carboxy-5-hydrazineylpentyl)amino)-4-oxobutanamido)‑N,N,N‑trimethylpropan‑1‑aminium][Pen]NT[Trp(7-Me)]K(Ac)[Pen][2‑amino‑3‑(4-(2-aminoethoxy)phenyl)propanoic acid][2‑amino‑3‑(6-hydroxynaphthalen-2-yl)propanoic acid][Thp]EN[3Pal][Sar] (disulfide 2-7 (inferred); ends not checked) [SEQ ID NO: 263]",< 1 nM,–
"[Pen]NT[Trp(7-Me)]K(Ac)[Pen][5‑(4-(2-amino-2-carboxyethyl)phenoxy)‑N,N,N‑trimethylpentan‑1‑aminium][2Nal(6-OH)][Thp]EN[3Pal][Sar] (not fully specified (bridges); ends and bridges not checked) [SEQ ID NO: 75]",–,< 10 nM
"[Pen]NT[Trp(7-Me)]K(Ac)[Pen][2‑amino‑3‑(4-(2-aminoethoxy)phenyl)propanoic acid][2‑amino‑3‑(6-hydroxynaphthalen-2-yl)propanoic acid][Thp]KN[3Pal][Sar] (not fully specified (bridges); ends and bridges not checked; also: K10: lipidated lysine, lipid not given here) [SEQ ID NO: 80]",–,< 10 nM
"[Pen]NT[Trp(7-Me)]K(Ac)[Pen][AEF][2Nal(6-OH)][Thp]K(Ac)N[3Pal][Sar]K (not fully specified (bridges); ends and bridges not checked; also: K14: lipidated lysine, lipid not given here) [SEQ ID NO: 72]",–,< 10 nM
[Pen]NT[Trp(7-Me)]K(Ac)[Pen][2‑amino‑3‑(4-(2-aminoethoxy)phenyl)propanoic acid][2‑amino‑3‑(6-hydroxynaphthalen-2-yl)propanoic acid][Thp]K(Ac)N[3Pal][Sar]K (disulfide 1-6 (inferred); not fully specified (residue 14); ends not checked; also: K14: lipidated lysine) [SEQ ID NO: 267],< 1 nM,–
"[(R)‑3‑carboxy‑2‑(4-(((R)-5-carboxy-5-hydrazineylpentyl)amino)-4-oxobutanamido)‑N,N,N‑trimethylpropan‑1‑aminium][Pen]NT[Trp(7-Me)]K(Ac)[Pen][2‑amino‑3‑(4-(2-aminoethoxy)phenyl)propanoic acid][2‑amino‑3‑(6-hydroxynaphthalen-2-yl)propanoic acid][Thp]EN[3Pal][Sar] (disulfide 2-7 (inferred); ends not checked) [SEQ ID NO: 266]",< 0.1 nM,–
"[(R)‑3‑carboxy‑2‑(4-(((R)-5-carboxy-5-hydrazineylpentyl)amino)-4-oxobutanamido)‑N,N,N‑trimethylpropan‑1‑aminium][Pen]NT[Trp(7-Me)]K(Ac)[Pen][2‑amino‑3‑(4-(2-aminoethoxy)phenyl)propanoic acid][2‑amino‑3‑(6-hydroxynaphthalen-2-yl)propanoic acid][Thp]EN[3Pal][Sar] (disulfide 2-7 (inferred); ends not checked) [SEQ ID NO: 265]",< 1 nM,–

# The remaining lines, values ahead:
PBMC pSTAT3 IC50,IL23R Reporter Assay IC50,Binder
< 1 nM,–,[Pen]NT[Trp(7-Me)]K(Ac)[Pen][2‑amino‑3‑(4-(2-aminoethoxy)phenyl)propanoic acid][2‑amino‑3‑(6-hydroxynaphthalen-2-yl)propanoic acid][Thp]K(Ac)N[3Pal][Sar]K(lipid) (disulfide 1-6 (inferred); ends not checked; also: K14: lipidated lysine) [SEQ ID NO: 271]
< 1 nM,–,"K[Pen]ET[Trp(7-Me)]K(Ac)[Pen][2‑amino‑3‑(4-(2-aminoethoxy)phenyl)propanoic acid][2‑amino‑3‑(6-hydroxynaphthalen-2-yl)propanoic acid][Thp]EN[3Pal][Sar] (not fully specified (residue 1, bridges); ends and bridges not checked; also: Lys1: lipidated lysine, lipid not given here) [SEQ ID NO: 395]"
< 1 nM,–,"R[Pen]KT[Trp(7-Me)]K(Ac)[Pen][AEF][2Nal(6-OH)][Thp]EN[3Pal][Sar] (not fully specified (residue 3, bridges); ends and bridges not checked; also: K3: lipidated lysine) [SEQ ID NO: 425]"
< 1 nM,–,R[Pen]ET[Trp(7-Me)]K(Ac)[Pen][AEF][2Nal(6-OH)][Thp]K(Ac)N[3Pal][Sar] (not fully specified (bridges); ends and bridges not checked) [SEQ ID NO: 421]
< 0.1 nM,–,R[Pen]NT[Trp(7-Me)]K(Ac)[Pen][AEF][2Nal(6-OH)][Thp]EN[X6][Sar] (not fully specified (bridges); ends and bridges not checked) [SEQ ID NO: 419]
< 1 nM,–,R[Pen]NT[Trp(7-Me)]K(Ac)[Pen][2‑amino‑3‑(4-(2-aminoethoxy)phenyl)propanoic acid][2‑amino‑3‑(6-hydroxynaphthalen-2-yl)propanoic acid][Thp]EN[3Pal][Sar]K (disulfide 2-7 (inferred); not fully specified (residue 15); ends not checked; also: K15: lipidated lysine) [SEQ ID NO: 269]
< 1 nM,–,[Pen]NT[Trp(7-Me)]K(Ac)[Pen][2‑amino‑3‑(4-(2-aminoethoxy)phenyl)propanoic acid][2‑amino‑3‑(6-hydroxynaphthalen-2-yl)propanoic acid][Thp]K(Ac)N[3Pal][Sar]K(lipid) (disulfide 1-6 (inferred); ends not checked; also: K14: lipidated lysine) [SEQ ID NO: 277]
< 0.1 nM,–,R[Pen]ET[Trp(7-Me)]K(Ac)[Pen][AEF][2Nal(6-OH)][Thp]KN[3Pal][Sar] (not fully specified (bridges); ends and bridges not checked; also: K11: lipidated lysine) [SEQ ID NO: 420]
< 1 nM,–,"K[Pen]ET[Trp(7-Me)]K(Ac)[Pen][AEF][2Nal(6-OH)][Thp]K(Ac)N[3Pal][Sar] (not fully specified (bridges); ends and bridges not checked; also: lipidated Lys1, lipid not given here) [SEQ ID NO: 423]"
